Assay results as given in US20260167703A1.
Residue numbers refer to the chain shown, from its start.

B1: DENV2-3H11 (antibody, V domains shown)
VH: QSVEESGGRLVTPGTPLTLTCTVSGFSLINYDMSWIRQAPGKGLEWIGMVSGGGHTNYASWANGRFTISKTSSTTMDLKITSPTTEDTASYFCGRWDIWGPGTLVTVSL
VL: AVVVTQTASPVSAAVGGTVTISCQSSQSVYDDNWLAWYQQKPGQPPKQLIYRASRLASGVPSRFSGTGSGTQFTLTISGVQCDDAATYYCLGGYVDDGDTTFGGGTEVVVK
B2: DENV2-8D8 (antibody, V domains shown)
VH: QSLEESGGRLVKPDETLTLTCTVSGIDLSSTIITWVRQAPGKGLEYIGIIGSSGSIISANWAKGRFTISRTSTTVDLKMTSLTTEDTATYFCARIAWSTGRNDIWGPGTLVTVSS
VL: AAVLTQTPPSVSAAVGGTVTISCQSSQSVYNNNALSWYQQKPGQPPKLLIYLASNLASGVPSRFSGSGSGTQFTLTISGVQCDDAATYHCLGVDDDDVDNTFGGGTEVVVK
B3: DENV2-5F4 (antibody, V domains shown)
VH: QSVEESGGRLVKPDETLTLTCTVSGIDLSNTVISWVRQAPGKGLEYIGMITPSGSAYSATWAKGRVTISRTSTTVDLKIASPTTEDTATYFCARIAWSTGRNDIWGPGTLVTVSS
VL: B2 VL with S22K, L52Q, N55K, A57S, P61S, Q72H, H89Y, V93I, D94Y, K111G
B4: DENV4-7F2 (antibody, V domains shown)
VH: QSVEESGGRLVTPGTPLTLTCTVSGIDLSYYAMGWVRQAPGEGLECIGFIDTGDSAYYASWAKGRFTISKTSSTTVDLKITSPTPEDTATYFCGRSLSSYYDWDAFDPWGPGTLVTVSS
VL: AYDMTQTPASVEVAVGGTVTINCQASQTIGNLLAWYQQKPGQRPKLLIYRASTLASGVPSRFKGSGSGTQFTLTISGVECADAATYYCQQGASANDIDNSFGGGTAVVVK
B5: DENV4-10A11 (antibody, V domains shown)
VH: QSVEESGGRLVTPGTPLTLTCTVSGINLSFYAMGWVRQAPGKGLECVGFIDTDNSAYYASWAKGRFTISKTSTTVDLKITSPTTEDTATYFCARSLSSFYDWDAFDPWGPGTLVTVSS
VL: B4 VL with N22K, Q24L, T28S, G30S, A94N, N95S, S100A, A106E
B6: DENV4-5B11 (antibody, V domains shown)
VH: QSVEESGGRLVTPGTPLTLTCTVSGFSLSDSAMSWVRQAPGKGLEWIGYIYAGSGTTYYASWAKGRFTISKTSTTVDLKITSPTTEDTATYFCARATAYVGYGYGDDTFDPWGPGTLVTVSS
VL: AYDMTQTPASVEVAVGGTVTIKCQASQSISSYLSWYQQKPGQRPKLLIYRASTLASGVSSRFKGSGSGTEFTLTISGVQCDDAATYYCQQGYSNSDVDNVFGGGTEVVVK
B7: DENV4-7G4 (antibody, V domains shown)
VH: B6 VH with D30S, S31C, S34T, A52V, G53D, G55D, K71T, K79R, A96T, Y102G
VL: DVVMTQTPASVEAAVGGTVTINCQASQNINSYLSWYQQKPGQRPKLLIYRAFTLASGVSSRFKGSGSGTQFTLTISGVECADAATYYCQQGYSFSGVDNVFGGGTEVVVK
B8: DENV4-7D5 (antibody, V domains shown)
VH: QSVEESGGRLVTPGTPLTLTCTVSGIDLSSWEMGWVRQAPGKGLEWIGIIFPSGTIYYANWAKGRFAISKASTTVDLKITSPTTEDTATYFCGRHGGSLYLNIWGPGTLVTVSL
VL: AQVLTQTPSPVSAAVGGTVTINCQASQSVYVNRNLAWYQQKPGQPPKVLIYEASKLASGVPSRFKGSGSGTQFTLTISGVQCDDAATYYCQGEFGCSSADCIAFGGGTEVVVK
B9: DENV4-8C7 (antibody, V domains shown)
VH: B8 VH with W31Y, A67T, A71T
VL: B8 VL
B10: DENV4-9G8 (antibody, V domains shown)
VH: QSLEESGGGLVKPGASLTLTCTASGFSFSYRYWMSWVRQAPGKRPEWIACIDTGNGDTYYASRAKGRFTIMKTSSTTVTLQMTSLTVADTATYFCARSDVTLTGYGYGNLWGPGTLVTVSS
VL: DSVMTQTPASVSEPVGGTVTINCQASHNIYNSLAWYQQKPGQPPKLLIYRASTLESGVPSRVKGSGYGTEYTLTISDLECADAATYYCQQYYGGDDDGFGFGGGTEVVVK

What follows are binders tested against DENV-2 VLP (Dengue virus serotype 2, strain Thailand/16681/84) (assay: Luminex, VLP-coupled beads).

Binder | EC50 [µg/mL]
B1 | 0.0354
B2 | 0.011
B3 | 0.0095

What follows are binders tested against DENV-2 VLP (Dengue virus serotype 2, strain Thailand/16681/84) (assay: not given).

Binder | Response (nm) | koff [s⁻¹]
B1 | 2.02 | < 2e-05
B2 | 0.756 | < 2e-05
B3 | 1.5 | < 2e-05

These binders were tested against DENV-2 E protein Domain III (Dengue virus serotype 2, strain Thailand/16681/1984) (assay: BLI, mAb on AR2G biosensor, 20 ug/mL Domain III, 1200 sec).

Binder | Response (nm)
B1 | -0.00452
B2 | 0.0246
B3 | 0.0206

What follows are binders tested against DENV-4 E protein Domain III (Dengue virus serotype 4, strain Indonesia/1036/1976) in the same assay as above.

Binder | Response (nm)
B4 | -0.005
B5 | 0.012
B6 | 0.02
B7 | -0.001
B8 | -0.007
B9 | -0.014
B10 | 0.264
